Measured values: patent US20230265215A1 (OMEROS, published 2023)

Legend:
[1] = molecular target: T1, Human MASP-2 CCP1/CCP2/SP H508Q 'dog-like' (human, UniProt O00187 287-686, limits assumed); experiment: BLI (Octet RED96), H508Q against wild-type human MASP-2 CCP1/CCP2/SP
T1 construct: also called dog-like variant of human MASP-2; MASP-2 H508Q
Protocol: All measurements were conducted with the Octet RED96 system (ForteBio) using PBS containing 1% BSA and 0.02% Tween 20 as assay buffer. […] After one step of baseline, the captured sensors were submerged into wells containing different concentrations of the target proteins (1.6-50 nM) for the association step (120 sec), and then transferred to empty wells for the dissociation step (200 sec). In all experiments, the captured sensor was also dipped in a well containing no analyte to allow single reference subtraction to compensate for the natural dissociation of the captured antibody. The recorded binding sensorgrams were analyzed with Octet data analysis software (ForteBio) to determine binding affinity (KD).

[2] = molecular target: T2, C1r (human, UniProt P00736 18-705, limits assumed); experiment: solid phase ELISA, immobilized protease, apparent KD
T2 construct: Species read from 'Recombinant human MASP-2 or C1r, C1s, CFD, MASP-1 and MASP-3'
T2 sequence (looked up): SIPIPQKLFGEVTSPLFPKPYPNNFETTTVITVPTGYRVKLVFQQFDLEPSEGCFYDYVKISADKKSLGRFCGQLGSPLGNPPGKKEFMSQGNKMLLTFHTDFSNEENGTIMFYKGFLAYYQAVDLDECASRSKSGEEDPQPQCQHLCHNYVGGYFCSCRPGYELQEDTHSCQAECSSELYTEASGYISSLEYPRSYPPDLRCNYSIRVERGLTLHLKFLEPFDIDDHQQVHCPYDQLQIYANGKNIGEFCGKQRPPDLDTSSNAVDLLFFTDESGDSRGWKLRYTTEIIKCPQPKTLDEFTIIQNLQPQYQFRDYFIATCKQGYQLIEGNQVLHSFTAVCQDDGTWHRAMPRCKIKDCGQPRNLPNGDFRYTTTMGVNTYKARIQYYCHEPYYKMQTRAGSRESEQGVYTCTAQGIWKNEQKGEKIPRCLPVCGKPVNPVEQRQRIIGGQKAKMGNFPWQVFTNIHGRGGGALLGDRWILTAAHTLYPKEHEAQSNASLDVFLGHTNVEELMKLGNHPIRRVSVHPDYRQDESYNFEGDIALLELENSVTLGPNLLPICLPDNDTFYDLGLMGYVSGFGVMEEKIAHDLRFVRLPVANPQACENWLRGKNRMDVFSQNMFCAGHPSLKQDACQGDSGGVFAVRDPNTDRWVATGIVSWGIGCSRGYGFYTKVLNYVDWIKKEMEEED
From the text: (§1) The apparent dissociation constant (KD) was estimated by nonlinear regression using a 4-parameter logistic model.

[3] = molecular target: T3, CFD (human, UniProt P00746 26-253, limits assumed); experiment: as above
T3 construct: Species read from 'Recombinant human MASP-2 or C1r, C1s, CFD, MASP-1 and MASP-3'; also called factor D; complement factor D
From the text: as §1

[4] = molecular target: T4, C1s (human, UniProt P09871 16-688, limits assumed); experiment: as above
T4 construct: Species read from 'Recombinant human MASP-2 or C1r, C1s, CFD, MASP-1 and MASP-3'
T4 sequence (looked up): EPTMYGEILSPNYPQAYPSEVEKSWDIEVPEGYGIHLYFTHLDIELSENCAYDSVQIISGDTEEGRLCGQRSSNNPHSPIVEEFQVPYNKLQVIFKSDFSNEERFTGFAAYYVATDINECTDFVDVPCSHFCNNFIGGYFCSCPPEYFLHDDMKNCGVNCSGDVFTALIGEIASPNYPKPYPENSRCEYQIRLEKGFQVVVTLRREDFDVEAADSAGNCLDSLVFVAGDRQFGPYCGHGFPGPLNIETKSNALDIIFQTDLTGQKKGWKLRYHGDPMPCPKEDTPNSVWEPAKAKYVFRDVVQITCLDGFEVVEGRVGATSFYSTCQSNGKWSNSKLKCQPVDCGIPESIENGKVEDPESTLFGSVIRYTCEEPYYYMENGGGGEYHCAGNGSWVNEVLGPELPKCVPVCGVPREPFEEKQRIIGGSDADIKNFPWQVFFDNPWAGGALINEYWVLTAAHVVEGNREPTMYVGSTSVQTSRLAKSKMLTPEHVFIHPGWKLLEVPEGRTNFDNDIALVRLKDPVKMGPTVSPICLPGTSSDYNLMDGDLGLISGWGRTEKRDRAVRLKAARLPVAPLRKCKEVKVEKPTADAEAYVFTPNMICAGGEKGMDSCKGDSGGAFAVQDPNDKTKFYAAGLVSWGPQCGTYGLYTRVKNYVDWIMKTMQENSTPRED
From the text: as §1

[5] = molecular target: T5, MASP-3 (human, UniProt P48740-2 20-728, limits assumed); experiment: as above
T5 construct: Species read from 'Recombinant human MASP-2 or C1r, C1s, CFD, MASP-1 and MASP-3'
T5 sequence (looked up): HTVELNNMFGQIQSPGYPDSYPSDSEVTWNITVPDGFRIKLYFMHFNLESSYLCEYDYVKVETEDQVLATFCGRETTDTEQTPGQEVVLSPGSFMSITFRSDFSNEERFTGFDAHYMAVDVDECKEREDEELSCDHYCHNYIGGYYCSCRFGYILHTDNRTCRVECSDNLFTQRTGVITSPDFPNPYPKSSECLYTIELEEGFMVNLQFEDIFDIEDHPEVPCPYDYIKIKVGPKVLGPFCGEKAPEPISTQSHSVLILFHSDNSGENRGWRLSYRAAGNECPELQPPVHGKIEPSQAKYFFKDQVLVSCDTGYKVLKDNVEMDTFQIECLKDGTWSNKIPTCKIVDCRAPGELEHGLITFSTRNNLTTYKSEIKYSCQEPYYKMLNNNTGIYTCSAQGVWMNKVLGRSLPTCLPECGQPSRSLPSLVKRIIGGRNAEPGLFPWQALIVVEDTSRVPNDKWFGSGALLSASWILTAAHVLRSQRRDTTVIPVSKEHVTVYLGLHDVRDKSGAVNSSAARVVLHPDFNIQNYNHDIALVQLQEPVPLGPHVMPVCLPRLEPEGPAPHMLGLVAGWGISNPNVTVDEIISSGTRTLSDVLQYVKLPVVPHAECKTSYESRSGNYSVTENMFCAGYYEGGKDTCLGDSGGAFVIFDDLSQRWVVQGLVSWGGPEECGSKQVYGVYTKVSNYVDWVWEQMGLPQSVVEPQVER
From the text: as §1

T1 sequence (O00187 other isoform, or with tags, fused parts or gaps H508Q H508Q limits assumed): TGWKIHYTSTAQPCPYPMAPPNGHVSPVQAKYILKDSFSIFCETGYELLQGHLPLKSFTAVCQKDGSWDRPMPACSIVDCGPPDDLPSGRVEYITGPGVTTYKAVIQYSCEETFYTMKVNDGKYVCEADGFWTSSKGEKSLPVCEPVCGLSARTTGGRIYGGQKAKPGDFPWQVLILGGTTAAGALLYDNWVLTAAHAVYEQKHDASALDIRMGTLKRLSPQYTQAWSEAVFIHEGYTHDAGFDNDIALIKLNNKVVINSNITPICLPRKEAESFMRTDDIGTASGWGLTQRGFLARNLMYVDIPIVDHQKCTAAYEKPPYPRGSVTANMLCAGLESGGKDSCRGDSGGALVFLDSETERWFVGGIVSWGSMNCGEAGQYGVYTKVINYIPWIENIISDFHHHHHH
T3 sequence (P00746 26-253 limits assumed): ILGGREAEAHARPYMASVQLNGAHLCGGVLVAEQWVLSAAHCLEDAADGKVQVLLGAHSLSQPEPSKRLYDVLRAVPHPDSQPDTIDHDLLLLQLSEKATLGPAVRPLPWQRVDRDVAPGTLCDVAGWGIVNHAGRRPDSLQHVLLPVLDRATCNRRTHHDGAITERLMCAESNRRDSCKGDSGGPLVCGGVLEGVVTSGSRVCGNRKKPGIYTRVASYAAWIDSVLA

fold reduction of binding affinity against wild-type human MASP-2 CCP1/CCP2/SP [1]: ~450 fold | Kd [2]: > 100 µg/mL | Kd [3]: > 100 µg/mL | Kd [4]: > 100 µg/mL | Kd [5]: > 100 µg/mL
B1: mAb OMS858 (humanized anti-MASP-2 antibody) (antibody, V domains shown)
VH: QVQLVQSGAEVKKPGASVKVSCKASGYTFTNHHMHWLRQAPGQGLEWIGDIDASDSETHYIEKFKDRATLTIDKSSSTAYMELSSLRSEDTAVYYCARGDITTTLRYFDVWGQGTLVTVSS
VL: DIQLTQSPSSLSASVGDRVTITCSASSSVRYMYWYQQKPGKAPKLLIYDTSNLASGVPSRFSGSGSGTDNTLTISSLQPEDFATYYCQQWSSYPLTFGQGTKVEIKR
notes: also called antibody OMS858; biotinylated OMS858
